Here are results for six sequences from the supplement of paper PMC5998384.

The subject of data set [1] is HeLa Kyoto. Briefly: solubility change mitosis vs G1/S (difference of NP-40 vs SDS log2 ratios) (log2 ratio difference); higher = more soluble in mitosis.
For data set [2], the system named is HeLa Kyoto. Briefly: melting temperature (median over replicates), in situ; higher = more thermally stable.
The test system of data set [3] is HeLa Kyoto. Kind of data set: solubility in G1/S (NP-40 vs SDS abundance) (log2 ratio); higher = more soluble. Conditions: cell cycle stage: G1/S.
In data set [4] the test system is HeLa Kyoto. Kind of data set: thermal stability score vs G1/S (z-score of summed log2 fold changes over temperatures); higher = more thermally stable than in G1/S.
Where [5] appears, read: cell cycle stage: early G1 (4.5 h after nocodazole release).
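For melting temperature (median over replicates), in situ in this document: HeLa Kyoto cells synchronized by double thymidine or nocodazole block, proteins quantified by TMT10plex mass spectrometry, three independent biological replicates.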
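For solubility change mitosis vs G1/S (difference of NP-40 vs SDS log2 ratios) in this document: synchronized HeLa Kyoto cells (double thymidine block for G1/S, nocodazole release for mitosis), protein amounts in NP-40 versus SDS lysates quantified by mass spectrometry, three biological replicates.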
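For solubility in G1/S (NP-40 vs SDS abundance) in this document: HeLa Kyoto cells arrested at G1/S by double thymidine block, proteins quantified by TMT10plex mass spectrometry in mild NP-40 versus SDS extracts, three biological replicates.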
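For thermal stability score vs G1/S (z-score of summed log2 fold changes over temperatures) in this document: synchronized HeLa Kyoto cells, proteins quantified by TMT10plex mass spectrometry, three biological replicates, mitosis taken 0.5 h after nocodazole release, G1/S directly after double thymidine block.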

“MICTFLRAVQYTEKLHRSSAKRLLLPYIVLNKACLKTEPSLRCGLQYQKKTLRPRCILGVTQKTIWTQGPSPRKAKEDGSKQVSVHRSQRGGTAVPTSQKVKEAGRDFTYLIVVLFGISITGGLFYTIFKELFSSSSPSKIYGRALEKCRSHPEVIGVFGESVKGYGEVTRRGRRQHVRFTEYVKDGLKHTCVKFYIEGSEPGKQGTVYAQVKENPGSGEYDFRYIFVEIESYPRRTIIIEDNRSQDD [TIMM21]”: the “solubility change mitosis (log2)” value in the data set with HeLa Kyoto [1] is 0.0282. Also, the results for the melting temperature with HeLa Kyoto [2] (cell cycle stage: G1/S) and in the data set on HeLa Kyoto [2] (cell cycle stage: mitosis) were 52.1 °C and 51.6 °C, respectively. Further, the “solubility in G1/S (log2)” value with HeLa Kyoto [3] is -0.209. Moreover, the thermal stability score with HeLa Kyoto [4] (setting [5]) was 0.315; in the data set on HeLa Kyoto [4] (cell cycle stage: mitosis), -0.0739.

In the case of “MIEMAAEKEPFLVPAPPPPLKDESGGGGGPTVPPHQEAASGELRGGTERGPGRCAPSAGSPAAAVGRESPGAAATSSSGPQAQQHRGGGPQAQSHGEARLSDPPGRAAPPDVGEERRGGGGTELGPPAPPRPRNGYQPHRPPGGGGGKRRNSCNVGGGGGGFKHPAFKRRRRVNSDCDSVLPSNFLLGGNIFDPLNLNSLLDEEVSRTLNAETPKSSPLPAKGRDPVEILIPKDITDPLSLNTCTDEGHVVLASPLKTGRKRHRHRGQHHQQQQAAGGSESHPVPPTAPLTPLLHGEGASQQPRHRGQNRDAPQPYELNTAINCRDEVVSPLPSALQGPSGSLSAPPAASVISAPPSSSSRHRKRRRTSSKSEAGARGGGQGSKEKGRGSWGGRHHHHHPLPAAGFKKQQRKFQYGNYCKYYGYRNPSCEDGRLRVLKPEWFRGRDVLDLGCNVGHLTLSIACKWGPSRMVGLDIDSRLIHSARQNIRHYLSEELRLPPQTLEGDPGAEGEEGTTTVRKRSCFPASLTASRGPIAAPQVPLDGADTSVFPNNVVFVTGNYVLDRDDLVEAQTPEYDVVLCLSLTKWVHLNWGDEGLKRMFRRIYRHLRPGGILVLEPQPWSSYGKRKTLTETIYKNYYRIQLKPEQFSSYLTSPDVGFSSYELVATPHNTSKGFQRPVYLFHKARSPSH [MEPCE]”, in the data set with HeLa Kyoto [1], the “solubility change mitosis (log2)” value amounted to 0.364. Besides, the values for the melting temperature in the data set with HeLa Kyoto [2] (cell cycle stage: G1/S) and with HeLa Kyoto [2] (cell cycle stage: mitosis) were 47.8 °C and 49.8 °C, respectively. In addition, the “solubility in G1/S (log2)” value in the data set with HeLa Kyoto [3] was -0.115. Besides, the results for the thermal stability score in the data set with HeLa Kyoto [4] (setting [5]) and in the data set on HeLa Kyoto [4] (cell cycle stage: mitosis) were 2.47 and 4.6, respectively.

On to “MIFPVARYALRWLRRPEDRAFSRAAMEMALRGVRKVLCVAEKNDAAKGIADLLSNGRMRRREGLSKFNKIYEFDYHLYGQNVTMVMTSVSGHLLAHDFQMQFRKWQSCNPLVLFEAEIEKYCPENFVDIKKTLERETRQCQALVIWTDCDREGENIGFEIIHVCKAVKPNLQVLRARFSEITPHAVRTACENLTEPDQRVSDAVDVRQELDLRIGAAFTRFQTLRLQRIFPEVLAEQLISYGSCQFPTLGFVVERFKAIQAFVPEIFHRIKVTHDHKDGIVEFNWKRHRLFNHTACLVLYQLCVEDPMATVVEVRSKPKSKWRPQALDTVELEKLASRKLRINAKETMRIAEKLYTQGYISYPRTETNIFPRDLNLTVLVEQQTPDPRWGAFAQSILERGGPTPRNGNKSDQAHPPIHPTKYTNNLQGDEQRLYEFIVRHFLACCSQDAQGQETTVEIDIAQERFVAHGLMILARNYLDVYPYDHWSDKILPVYEQGSHFQPSTVEMVDGETSPPKLLTEADLIALMEKHGIGTDATHAEHIETIKARMYVGLTPDKRFLPGHLGMGLVEGYDSMGYEMSKPDLRAELEADLKLICDGKKDKFVVLRQQVQKYKQVFIEAVAKAKKLDEALAQYFGNGTELAQQEDIYPAMPEPIRKCPQCNKDMVLKTKKNGGFYLSCMGFPECRSAVWLPDSVLEASRDSSVCPVCQPHPVYRLKLKFKRGSLPPTMPLEFVCCIGGCDDTLREILDLRFSGGPPRASQPSGRLQANQSLNRMDNSQHPQPADSRQTGSSKALAQTLPPPTAAGESNSVTCNCGQEAVLLTVRKEGPNRGRQFFKCNGGSCNFFLWADSPNPGAGGPPALAYRPLGASLGCPPGPGIHLGGFGNPGDGSGSGTSCLCSQPSVTRTVQKDGPNKGRQFHTCAKPREQQCGFFQWVDENTAPGTSGAPSWTGDRGRTLESEARSKRPRASSSDMGSTAKKPRKCSLCHQPGHTRPFCPQNR [TOP3A]”, for which the “solubility change mitosis (log2)” value in the data set with HeLa Kyoto [1] came out at 0.0865. Also, the melting temperature in the data set with HeLa Kyoto [2] (cell cycle stage: G1/S) was 46.9 °C; in the data set with HeLa Kyoto [2] (cell cycle stage: mitosis), 48.4 °C. Further, the “solubility in G1/S (log2)” value with HeLa Kyoto [3] is -0.336. In addition, the results for the thermal stability score in the data set with HeLa Kyoto [4] (setting [5]) and in the data set on HeLa Kyoto [4] (cell cycle stage: mitosis) were 1.18 and 1.85, respectively.

In the case of “MIIPSLEELDSLKYSDLQNLAKSLGLRANLRATKLLKALKGYIKHEARKGNENQDESQTSASSCDETEIQISNQEEAERQPLGHVTKTRRRCKTVRVDPDSQQNHSEIKISNPTEFQNHEKQESQDLRATAKVPSPPDEHQEAENAVSSGNRDSKVPSEGKKSLYTDESSKPGKNKRTAITTPNFKKLHEAHFKEMESIDQYIERKKKHFEEHNSMNELKQQPINKGGVRTPVPPRGRLSVASTPISQRRSQGRSCGPASQSTLGLKGSLKRSAISAAKTGVRFSAATKDNEHKRSLTKTPARKSAHVTVSGGTPKGEAVLGTHKLKTITGNSAAVITPFKLTTEATQTPVSNKKPVFDLKASLSRPLNYEPHKGKLKPWGQSKENNYLNQHVNRINFYKKTYKQPHLQTKEEQRKKREQERKEKKAKVLGMRRGLILAED [NUSAP1]”, in the data set with HeLa Kyoto [1], the “solubility change mitosis (log2)” value came to 0.535. In addition, the melting temperature in the data set with HeLa Kyoto [2] (cell cycle stage: G1/S) came to 54.7 °C; in the data set on HeLa Kyoto [2] (cell cycle stage: mitosis) it was 54.6 °C. Further, in the data set on HeLa Kyoto [3], the “solubility in G1/S (log2)” value was -0.327. Moreover, the thermal stability score was 1.75 in the data set with HeLa Kyoto [4] (setting [5]) and -5.46 in the data set on HeLa Kyoto [4] (cell cycle stage: mitosis).

As for “MIKLFSLKQQKKEEESAGGTKGSSKKASAAQLRIQKDINELNLPKTCDISFSDPDDLLNFKLVICPDEGFYKSGKFVFSFKVGQGYPHDPPKVKCETMVYHPNIDLEGNVCLNILREDWKPVLTINSIIYGLQYLFLEPNPEDPLNKEAAEVLQNNRRLFEQNVQRSMRGGYIGSTYFERCLK [UBE2M]”, the “solubility change mitosis (log2)” value in the data set on HeLa Kyoto [1] is -0.0392. Besides, the melting temperature came to 51.1 °C with HeLa Kyoto [2] (cell cycle stage: G1/S) and 51.2 °C in the data set with HeLa Kyoto [2] (cell cycle stage: mitosis). Also, the “solubility in G1/S (log2)” value in the data set with HeLa Kyoto [3] was determined as 0.576. Besides, the thermal stability score was -1.49 in the data set on HeLa Kyoto [4] (setting [5]) and -1.29 with HeLa Kyoto [4] (cell cycle stage: mitosis).

Turning to “MIPLLLAALLCVPAGALTCYGDSGQPVDWFVVYKLPALRGSGEAAQRGLQYKYLDESSGGWRDGRALINSPEGAVGRSLQPLYRSNTSQLAFLLYNDQPPQPSKAQDSSMRGHTKGVLLLDHDGGFWLVHSVPNFPPPASSAAYSWPHSACTYGQTLLCVSFPFAQFSKMGKQLTYTYPWVYNYQLEGIFAQEFPDLENVVKGHHVSQEPWNSSITLTSQAGAVFQSFAKFSKFGDDLYSGWLAAALGTNLQVQFWHKTVGILPSNCSDIWQVLNVNQIAFPGPAGPSFNSTEDHSKWCVSPKGPWTCVGDMNRNQGEEQRGGGTLCAQLPALWKAFQPLVKNYQPCNGMARKPSRAYKI [DNASE2]”, the “solubility change mitosis (log2)” value in the data set on HeLa Kyoto [1] was -0.0918. Besides, the figures for the melting temperature in the data set with HeLa Kyoto [2] (cell cycle stage: G1/S) and with HeLa Kyoto [2] (cell cycle stage: mitosis) were 56.2 °C and 56.1 °C, respectively. Further, the “solubility in G1/S (log2)” value with HeLa Kyoto [3] was 0.364. Moreover, the thermal stability score was -1.39 with HeLa Kyoto [4] (setting [5]) and -2.33 with HeLa Kyoto [4] (cell cycle stage: mitosis).
